Experiments:
[1] = target: T1, MBP-Th-LGR4 LRR1-14 (MBP-Th-hLGR4.23-383-H6) (human, UniProt Q9BXB1 23-383); test: TR-FRET competition binding; Tb-labeled MBP-Th-LGR4 LRR1-14, AF488-labeled MBP-Th-RSPO2 Fu1-Fu2 as tracer
T1 construct: range 23-383; Produced in E. coli; Labeled with amine-reactive terbium chelate in the TR-FRET assay; unlabeled in the AlphaLISA ternary complex assay; also called MBP-Th-LGR4 ECD; LGR4 ECD; not shown: thrombin cut site (Th) linker

[2] = target: T1, MBP-Th-LGR4 LRR1-14 …; test: TR-FRET competition binding to LGR4 ECD
Method: (§1) HEK293T cells transfected with TOPFLASH firefly luciferase reporter and Renilla luciferase control plasmids were treated with the indicated concentrations of MBP-Th-RSPO Fu1-Fu2 proteins in 1:6 diluted Wnt3a conditioned media. […] (C) AlphaLISA® luminescent proximity assay (BMG Labtech GmbH, Ortenberg, Germany) for ZNRF3 ECD binding. The indicated concentrations of MBP—Th-RSPO Fu1-Fu2 proteins were incubated with 3 nM Biotin-ZNRF3 ECD. Donor and acceptor beads were at 20 μg/ml each. Data shown for panels A-C are representative of at least three independent experiments, each performed in duplicate. The error bars represent the S.E.M. of the experiment. (D, E, F) Vertical scatter plots showing the pECso, Eₘₐₓ, and pK₁ values obtained from replicate independent signaling and LGR4 binding experiments as in panels A and B. The mean values and error bars representing the S.E.M. of the replicates are denoted.
(§2) The LGR4 ECD binding abilities of the newly purified MBP-Th-RSPO Fu1-Fu2-H₆ proteins were examined in an in vitro LanthaScreen®TR-FRET competition-binding assay (Thermo Fisher Scientific Inc., Rockford, Ill.).

[3] = target: T1, MBP-Th-LGR4 LRR1-14 …; test: TR-FRET competition binding; Tb-labeled MBP-Th-LGR4 LRR1-14 (20 nM), AF488-labeled MBP-Th-RSPO2 Fu1-Fu2 (125 nM) as tracer
Method: as §1, §2

[4] = target: T1, MBP-Th-LGR4 LRR1-14 …; test: AlphaLISA ternary complex control assay

Row | pKI [1] | pKI [3] | Binder | further results
1 | 8.23 | – | commercial full-length RSPO4 produced in CHO cells (R&D Systems, catalog number 4575-RS-025/CF) (ligand, UniProt Q2I0M5 20-234, looked up, mature; Bought protein; also called R&D RSPO4 (CHO)) LNRRKKQVGTGLGGNCTGCIICSEENGCSTCQQRLFLFIRREGIRQYGKCLHDCPPGYFGIRGQEVNRCKKCGATCESCFSQDFCIRCKRQFYLYKGKCLPTCPPGTLAHQNTRECQGECELGPWGGWSPCTHNGKTCGSAWGLESRVREAGRAGHEEAATCQVLSESRKCPIQRPCPGERSPGQKKGRKDRRPRKDRKLDRRLDVRPRQPGLQP | –
2 | 8.28 | 8.12 | MBP-Th-RSPO4 Fu1-Fu2-H6 (MBP-Th-RSPO4.21-138-H6), produced in E. coli (ligand, Bacterially produced; also called MBP-Th-RSPO4 (E. coli); pAP356; not shown: thrombin cut site (Th) linker) NRRKKQVGTGLGGNCTGCIICSEENGCSTCQQRLFLFIRREGIRQYGKCLHDCPPGYFGIRGQEVNRCKKCGATCESCFSQDFCIRCKRQFYLYKGKCLPTCPPGTLAHQNTRECQGEHHHHHH | fold stronger affinity than RSPO2 and RSPO3 [2]: ~7 fold
3 | – | 6.9 | MBP-Th-RSPO1 Fu1-Fu2-H6 (ligand, Produced in E. coli; also called MBP-Th-hRSPO1 Fu1-Fu2-H6; not shown: thrombin cut site (Th) linker) SRGIKGKRQRRISAEGSQACAKGCELCSEVNGCLKCSPKLFILLERNDIRQVGVCLPSCPPGYFDARNPDMNKCIKCKIEHCEACFSHNFCTKCKEGLYLHKGRCYPACPEGSSAANGTMECSSPHHHHHH | –
4 | – | 7.26 | MBP-Th-RSPO2 Fu1-Fu2-H6 (MBP-Th-RSPO2.22-144-H6) (ligand, Produced in E. coli; also called pAC018; not shown: thrombin cut site (Th) linker) QGNRWRRSKRASYVSNPICKGCLSCSKDNGCSRCQQKLFFFLRREGMRQYGECLHSCPSGYYGHRAPDMNRCARCRIENCDSCFSKDFCTKCKVGFYLHRGRCFDECPDGFAPLEETMECVEGHHHHHH | –
5 | – | – | Biotin-ZNRF3 ECD (Avi tag-ZNRF3.56-216-H6, MBP removed by thrombin) (receptor, human, biotin on the N-terminal Avi tag (site-specific in vivo biotinylation by BirA), range 56-216; Expressed in E. coli as MBP-Th-Avi tag-ZNRF3.56-216-H6; also called biotinylated ZNRF3 ECD; B-Z; not shown: Avi tag (and residues left after thrombin cleavage)) KETAFVEVVLFESSPSGDYTTYTTGLTGRFSRAGATLSAEGEIVQMHPLGLCNNNDEEDLYEYGWVGVVKLEQPELDPKPCLTVLGKAKRAVQRGATAVIFDVSENPEAIDQLNQGSEDPLKRPVVYVKGADAIKLMNIVNKQKVARARIQHRPPRQPTEYHHHHHH | binding result [4]: no binding (tested: 5 nM each)
6 | – | 7.31 | MBP-Th-RSPO3 Fu1-Fu2-H6 (MBP-Th-RSPO3.22-146-H6) (ligand, Produced in E. coli; also called pAP355; not shown: thrombin cut site (Th) linker) QNASRGRRQRRMHPNVSQGCQGGCATCSDYNGCLSCKPRLFFALERIGMKQIGVCLSSCPSGYYGTRYPDINKCTKCKADCDTCFNKNFCTKCKSGFYLHLGKCLDNCPEGLEANNHTMECVSIVHHHHHH | –

From patent publication US20160152947A1 (BOARD OF REGENTS OF THE UNIVERSITY OF OKLAHOMA, published 2016)
